# Data: the supplement of paper PMC10201428
# ± gives the standard deviation of the averaged measurements.
# Tests used:
# [1] = tested on: VchCAST RNA-guided transposition machinery (E. coli BL21(DE3) host, lacZ target); assay: relative integration efficiency (T-LR orientation) vs wild-type transposon end (log2 (normalized fold change)); transposon end mutated: left end; higher = more efficient transposition
# Summary of the method: (§1)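 A T7-driven effector plasmid encoding a CRISPR array, tniQ-cas8-cas7-cas6 and tnsA-tnsB-tnsC was co-transformed into E. coli BL21(DE3) together with a pUC57 mini-transposon donor holding barcoded pools of 1549 left-end or 1849 right-end variants. Transformants were plated with 0.1 mM IPTG at 37°C for 18 h. Illumina sequencing of PCR-amplified input plasmids and genomic integration junctions gave barcode abundances, and relative integration efficiency is their output/input fold change, normalised to reference barcodes and log-transformed.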
# [2] = tested on: VchCAST RNA-guided transposition machinery (E. coli BL21(DE3) host, lacZ target); assay: relative integration efficiency (T-RL orientation) vs wild-type transposon end (log2 (normalized fold change)); transposon end mutated: left end; higher = more efficient transposition
# Summary of the method: as §1
Sequence,relative integration efficiency (log2) [1],relative integration efficiency (log2) [2]
AATGTTGTTGATGCAACCATAAAGTGATATTTACCGACTGTCTGCCATCAGCCGCTTAACCGCAGCCCAACCATATATTGATATCTCACAAAACAACCATAAGTTGATATTTTTGTGAATCGAGTATTTCAGCAAAACTACTGCAGTAAGAA,-3.56 ± 0.14,-3.07 ± 0.93
AATGTTGTTGATGCAACCATAAAGTGATATTTACCGACTGTCTGCCATCCGCCGCTGAACCGCAGCCCAACCATATATTGATATCTCACAAAACAACCATAAGTTGATATTTTTGTGAATCGAGTATTTCAGCAAAACTACTGCAGTAAGAA,-3.04 ± 1.6,-2.98 ± 0.99
AATGTTGTTGATGCAACCATAAAGTGATATTTACCGACTGTCTGCCATCCGCCGCTGCACCGCAGCCCAACCATATATTGATATCTCACAAAACAACCATAAGTTGATATTTTTGTGAATCGAGTATTTCAGCAAAACTACTGCAGTAAGAA,-2.44 ± 0.78,-3.24 ± 1
AATGTTGTTGATGCAACCATAAAGTGATATTTACGAATCAATTAAAATCATAGGCTTAATCGAAAAACAACCATATATTGATATCTCATAAAACAACCATAAGTTGATATTTTGGTGAAAAGGATATTCCAACCTTCATAGTTTAGTAAGAA,0.612 ± 0.84,0.639 ± 0.032
AATGTTGTTGATGCAACCATAAAGTGATATTTACGAGCCGAGCTCGTGCCCGGTGCCGCGGCAGACGCAACCATATATTGATATCTCACAAAACAACCATAAGTTGATATTTTTGTGAATCGAGTATTTCAGCAAAACTACTGCAGTAAGAA,-2.47 ± 1.1,-2.33 ± 0.72
AATGTTGTTGATGCAACCATAAAGTGATATTTACGCACTCCGTAGCCATCTGGGGCACCGGACGCTCCAACCATATATTGATATCTCACAAAACAACCATAAGTTGATATTTTTGTGAATCGAGTATTTCAGCAAAACTACTGCAGTAAGAA,-3.42 ± 0.88,-2.64 ± 0.79
AATGTTGTTGATGCAACCATAAAGTGATATTTACGCCGGCGGGCGCCGACTACCAGGCCAACACCCCACCAACGCGCGGTCGCGAGACACCCCACCAACGCCTGGTCGCGGGGGTGTCCGATCTGATTTCAGCAAAACTACTGCAGTAAGAA,-6.15 ± 3.6,-6.9 ± 0.36
AATGTTGTTGATGCAACCATAAAGTGATATTTACGCCGGCGGGCGCCGACTACCAGGCCAACACCCCCAACCATATATTGATATCTCACAAAACAACCATAAGTTGATATTTTTGTGAATCGAGTATTTCAGCAAAACTACTGCAGTAAGAA,-2.85 ± 1.2,-3.42 ± 1.2
AATGTTGTTGATGCAACCATAAAGTGATATTTACGTCTGTACAGCGCACAGAAGCTGGGAACTCGGCCAACCATATATTGATATCTCACAAAACAACCATAAGTTGATATTTTTGTGAATCGAGTATTTCAGCAAAACTACTGCAGTAAGAA,-3.36 ± 2.2,-3.56 ± 1.1
AATGTTGTTGATGCAACCATAAAGTGATATTTACTAGGATTCATGTCAACGTGCAAGCTTAGTTCGACAACCATATATTGATATCTCACAAAACAACCATAAGTTGATATTTTTGTGAATCGAGTATTTCAGCAAAACTACTGCAGTAAGAA,-5.46 ± 2.5,-5.16 ± 1
AATGTTGTTGATGCAACCATAAAGTGATATTTACTTAAGCGAGTCTGTCCTTTCTGACTGTCGATCCCAACCATATATTGATATCTCACAAAACAACCATAAGTTGATATTTTTGTGAATCGAGTATTTCAGCAAAACTACTGCAGTAAGAA,-3.45 ± 1.6,-3.4 ± 1.1
AATGTTGTTGATGCAACCATAAAGTGATATTTAGACGTCCTTAACTCTGGCAGGGAGTTCAAGGGACCAACCATATATTGATATCTCACAAAACAACCATAAGTTGATATTTTTGTGAATCGAGTATTTCAGCAAAACTACTGCAGTAAGAA,-3.47 ± 2.7,-2.69 ± 1.2
AATGTTGTTGATGCAACCATAAAGTGATATTTAGCCGCTTCCGGGGCTGCCCTCTAAGCGCGAGCGCCAACCATATATTGATATCTCACAAAACAACCATAAGTTGATATTTTTGTGAATCGAGTATTTCAGCAAAACTACTGCAGTAAGAA,-0.565 ± 0.97,-3.92 ± 1.2
AATGTTGTTGATGCAACCATAAAGTGATATTTAGGCAGTGAGCGCAACGCAATTCTTAACCACAAAACAACCATATATTGATATCTCACAAAACAACCATAAGTTGATATTTTTGTGAATCGAGTATTTCAGCAAAACTACTGCAGTAAGAA,-3.58 ± 0.71,-4.22 ± 1.2
AATGTTGTTGATGCAACCATAAAGTGATATTTATAATTATTTATAATCAGCAACTTAACCACAAAACAACCATATATTGATATCTCACAAAACAACCATAAGTTGATATTTTTGTGAATCGAGTATTTCAGCAAAACTACTGCAGTAAGAAA,-0.645 ± 0.95,-0.877 ± 0.61
